The target of assay [1] is bovine carbonic anhydrase II (bovine) (UniProt P00921). Briefly: dot blot, peptide with biotin at C-terminus on spotted bCAII.
In assay [2] the target is T1, bovine carbonic anhydrase II (bCAII) (Bos taurus, UniProt P00921). The assay can be described thus: Dot blot assay of biotin-conjugated peptide ligands on deposited bCAII. Type of assay: binding. Conditions: for dot blot affinity/potency towards bCAII, in words: serial reduction of deposited bCAII, peptide 0.5 μM, compared with precursor. The procedure: Dot blot assays to measure affinity of the re-synthesized peptide ligands conjugated to biotin. […] A solution of bCAII was prepared as 10 mg/mL stocks in PBS buffer (pH 7.4). A serial dilution of the mother solution was applied to a nitrocellulose membrane, typically ranging from 2 μg to 5 ng per spot. The membrane was blocked at room temperature for 2 h in 5% nonfat milk/TBS-T. The membrane was then washed with TBS-T. […] After washing three times with TBS-T for 10 min, 1:3000 streptavidin-HRP (Abcam) prepared in 0.5% milk/TBS-T was added to the membrane and incubated for 2 h. After washing three times with TBS-T for 10 min, the membrane was treated with chemiluminescent reagents (Amersham ECL plus Western blotting detection reagents, GE Healthcare) and then immediately developed on film.
T1 sequence (P00921 whole entry): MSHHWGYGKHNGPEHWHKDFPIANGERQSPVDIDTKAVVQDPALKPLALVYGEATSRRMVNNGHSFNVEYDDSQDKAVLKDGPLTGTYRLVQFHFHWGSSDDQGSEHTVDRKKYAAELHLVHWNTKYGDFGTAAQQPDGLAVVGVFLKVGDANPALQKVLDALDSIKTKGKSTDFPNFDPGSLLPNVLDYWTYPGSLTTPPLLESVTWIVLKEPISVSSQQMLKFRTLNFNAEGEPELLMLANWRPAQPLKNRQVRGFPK

Assay [3] addresses T1, bovine carbonic anhydrase II (bCAII). The assay can be described thus: Surface Plasmon Resonance (SPR) of peptide ligands on immobilized bCAII. Type of assay: binding. The conditions noted are these: for response in SPR sensogram, in words: compared with other peptide ligands; for maximum response (Rmax): highest concentration (1.0 μM), bCAII immobilized to RU of 1000, FIG. 14; for interaction with bCAII: acetylated peptides, FIG. 9; for association-dissociation pattern in SPR sensogram: in words. From the text:
Validation by SPR. The peptide ligands were investigated for their binding affinity towards bCAII using SPR as a validation tool. The target marker was immobilized onto CM5 sensor chip to a response unit (RU) of 1000 in a Biacore T100 system. Each peptide solution of a series of concentrations was eluted through the surface of the chip to observe the response as well as the dissociation pattern mediated by treatment of glycine-hydrochloride. As depicted in FIG. 14, the maximum responses (Rmax) by the peptide ligands increased in a stepwise fashion from the hexamer-2 to the decamers and then to the tetradecamer (8→40→140) at the highest concentration (1.0 μM).
Surface Plasmon Resonance (SPR) experiments to measure affinity of the re-synthesized peptide ligands. Affinity measurements were performed using a Biacore T100 system and research grade CM5 sensor chips (GE Heathcare). The instrument was primed with HBS-EP+ (GE Heathcare) buffer. Flow cell 1 (or 3) was used as a reference to subtract nonspecific binding, drift, and the bulk refractive index, while flow cell 2 (or 4) was immobilized with the target biomarker (bCAII) following standard procedures. A 1:1 mixture of 0.4 M EDC and 0.1 M NHS was used to activate flow cell 2 (or 4), and 0.1 mg/mL bCAII solution was injected. Blocking of the remaining activated groups was done with a 1 M solution of ethanolamine (pH 8.5). bCAII was immobilized onto the sensor chip surface by […] (RU). The instrument was then primed using running buffer (HBS-EP+). Each of the 6mer ligand candidates identified were dissolved in HBS-EP+buffer to produce 5 μM peptide stock solutions for each peptide, which were serially diluted by a factor of 2 to produce a concentration series down to 2 nM. For a given affinity measurement, these series of peptide solutions successively were injected into flow cell 2 (or 4) for […] of contact time, 5 min of dissociation time, and […] of stabilization time using a flow rate of 100 μL/min at 25° C. Flow cell 2 (or 4) was regenerated by glycine 2.5 (GE Healthcare) after injection of each peptide solution.

Assay [4] has as its target human carbonic anhydrase II (hCAII) (Homo sapiens, UniProt P00918). Briefly: Dot blot experiments of peptide ligands towards hCAII. The format is binding. Conditions: FIG. 9.
The target in assay [5] is bovine carbonic anhydrase II (bovine) (UniProt P00921). Briefly: dot blot, biotinylated peptide on spotted bCAII.

The text below walks through data of patent US20120122711A1, “SCREENING OF BIOPOLYMERS” (priority 2009, published 2012).

Non-standard residues stand in square brackets, D forms with d. Primed or numbered codes have the meaning given here. No end group written: not given here. PEG2′ = PEG2 tether (Merck, 20 atoms)

Sequence of bovine carbonic anhydrase II (bovine) (P00921 2-260 limits assumed): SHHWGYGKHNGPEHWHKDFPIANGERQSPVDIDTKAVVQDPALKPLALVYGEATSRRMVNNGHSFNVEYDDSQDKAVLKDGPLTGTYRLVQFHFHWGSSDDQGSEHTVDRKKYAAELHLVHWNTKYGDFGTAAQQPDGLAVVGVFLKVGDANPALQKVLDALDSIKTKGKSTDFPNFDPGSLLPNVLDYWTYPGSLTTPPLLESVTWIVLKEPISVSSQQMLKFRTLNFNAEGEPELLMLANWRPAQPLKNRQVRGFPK

decamer-4 (ifvykr-wryp) (peptide): in assay [1], the lowest amount of deposited bCAII giving a developed spot was 20 ng.

For “ifvykr ([dI][dF][dV][dY][dK][dR]) [hexamer-2]”, the “dot blot affinity/potency towards bCAII, in words” value in assay [2] is reported as “even better property than hexamer-1”. In assay [3], the “response in SPR sensogram, in words” value is “even better property than hexamer-1” and the “maximum response (Rmax)” value is 8 RU.

In the case of lhrywf [hexamer-1], the “dot blot potency towards hCAII compared with bCAII” value in assay [4] is reported as “more potent”. In addition, the “interaction with bCAII” value in assay [3] is “interacting with bCAII”. In assay [3] (first-generation anchor peptide against bCAII), the “affinity (KD) in a Surface Plasmon Resonance (SPR) study” value is given as “a few”.

Regarding “ryrr-ifvykr ([dR][dY][dR][dR][dI][dF][dV][dY][dK][dR]) [decamer-3, 10]”, the “dot blot affinity/potency towards bCAII, in words” value in assay [2] is reported as “most prominent”.

For “kvtflhrywf (Ac-[dK][dV][dT][dF][dL][dH][dR][dY][dW][dF]-NH2) [decamer-N1, 8, D-amino acids, acetylated]”, the “dot blot affinity/potency towards bCAII, in words” value in assay [2] is given as “more potent”. In addition, in assay [4], the “dot blot potency towards hCAII compared with bCAII” value is listed as “similarly potent”. Further, in assay [3], the “interaction with bCAII” value is “interacting with bCAII”; the “response in SPR sensogram, in words” value was “higher response unit (RU)”; the “association-dissociation pattern in SPR sensogram” value is “much more antibody-like behavior”.

Take “ifvykr-wryp ([dI][dF][dV][dY][dK][dR][dW][dR][dY][dP]) [decamer-4, 11]”: the “dot blot affinity/potency towards bCAII, in words” value in assay [2] is listed as “most prominent”.

Consider “ryrr-ifvykr-wryp ([dR][dY][dR][dR][dI][dF][dV][dY][dK][dR][dW][dR][dY][dP]-{PEG2′-biotin}) [tetradecamer-N2C, 12]”, for which, in assay [2] (peptide ligand 0.1 μM), the “dot blot affinity compared with the two precursors decamer-N2 and decamer-C2” value was “not dramatically improved”; the “dot blot potency compared with initial anchor hexamer-2” value was “far more potent”. For the same substance, in assay [3], the “maximum response (Rmax)” value came to 140 RU and the “association-dissociation pattern in SPR sensogram” value is on record as “more antibody-like pattern”.

The substance decamer-3 (ryrr-ifvykr) (peptide) yielded a lowest amount of deposited bCAII giving a developed spot in assay [5] of 20 ng.
